Experimental data taken from US20260116960A1 (SHANGHAI HONGCHENG BIOPHARMACEUTICAL, published 2026).

Key:
[1] = molecular target: T1, human VEGF165-his protein (Acro, Catalog No. VE5-H5248) (human, UniProt P15692-4 27-191); test: ELISA, plate coated with human VEGF165-his
T1 construct: Bought protein; also called hVEGF165-His; VEGFA; not shown: his tag
Method: (§1) ELISA was used to determine the activity of the trispecific antibodies binding to the PD-1 protein: 1 μg/mL human PD-1 protein (Acro, Catalog No.: PD1-H5221) was used to coat a high-adsorption 96-well ELISA plate and incubated at 4° C. overnight. On the next day, the plate was washed three times with PBST solution and blocked with 1% BSA-PBS solution at 37° C. for 1 hour. At the same time, 3-fold gradient dilutions of the antibody were prepared with 1% BSA-PBS solution, with a starting concentration of 10 nM. The antibodies of each gradient concentration were added to the blocked 96-well ELISA plate at 100 µL/well in triplicate and incubated at 37° C. for 1 hour. The plate was then washed three times with 0.05% PBST solution, and 100 μL/well of HRP-labeled secondary antibody (Sigma, Catalog No.: A0170) diluted at 1:5000 was added to the ELISA plate and incubated at 37° C. for 1 hour. The plate was washed three times with 0.05% PBST solution and developed with TMB. The absorbance of the 96-well ELISA plate at 450 nm was detected by an ELISA reader. The OD₄₅₀ value was fitted using a four-parameter model to calculate the EC₅₀ value of each antibody binding to PD-1.
The binding activity of the trispecific antibodies to VEGFA protein was detected by ELISA method as described in Section 2.1. The used human VEGF165-his protein was purchased from Acro, Catalog No.: VE5-H5248.

[2] = molecular target: T2, human CTLA-4 protein (Acro, Catalog No. CT4-H52H9) (human, UniProt P16410 36-161); test: ELISA, plate coated with human CTLA-4 protein
T2 construct: Bought protein

[3] = molecular target: human PD-1 protein (Acro, PD1-H5257) (human, UniProt Q15116 25-167); test: competitive ELISA, PD-1 coated, biotin-PD-L1 as labelled ligand
Method: The next day, the plate was washed three times with PBS solution and blocked with 1% BSA-PBS solution at 37° C. for 1 hour. […] 100 μL of the antibody-protein mixture was added to each well of the blocked 96-well ELISA plate and incubated at 37° C. for 1 hour. After washing four times with PBST, 100 μL of Strep-HRP (BD, Catalog No. 554066) diluted 1:5000 was added to each well of the ELISA plate and incubated at 37° C. for 1 hour. After washing 4 times with PBST, TMB was used for color development. The absorbance at 450 nm and 630 nm was detected by a microplate reader, and OD450-OD630 was calculated. The fluorescence intensity was fitted using a four-parameter model, and the IC₅₀ value of the blocking activity of each antibody was calculated.

[4] = molecular target: T3, human PD-1 on the cell surface (human, UniProt Q15116 25-288); test: flow cytometry competition, 293T-hPD-1 cells, biotin-human PD-L1
T3 construct: whole, on cells; also called cell surface PD-1
Method: 50 μL of antibody solution serially diluted 3-fold in FACS buffer was added in triplicate, with a starting concentration of 200 nM. After mixing, incubated at 4° C. for 60 minutes. After washing three times with FACS buffer, 100 μL/well of 1:800 diluted PE Streptavidin was added and incubated at 4° C. for 50 min. After washing three times with FACS buffer, 150 μL/well of PBS was added to resuspend the cells, and the fluorescence signal was detected on a flow cytometer (BECKMAN COULTER cytoFLEX). The four-parameter model was used to fit the binding activity and the IC₅₀ value of the blocking activity of each antibody was calculated.

[5] = molecular target: T4, human PD-1 protein (Acro, Catalog No. PD1-H5221) (human, UniProt Q15116 25-167); test: ELISA, plate coated with human PD-1 protein
T4 construct: Bought protein; also called human PD1-his; not shown: his tag
Method: as §1

[6] = molecular target: T5, human CTLA-4 on the cell surface (human, UniProt P16410 36-223); test: flow cytometry competition, 293T-hPD-1-hCTLA-4 cells (PD-1 co-expressed), biotin-human CD80
T5 construct: whole, on cells; also called CHO-hCTLA-4 cells; CHOK1-hCTLA4 cells
Method: PD-1 and CTLA-4 are co-expressed on functionally exhausted T cells in the tumor microenvironment, and the expression level of PD-1 is higher than that of CTLA-4. […] 200 μL of the cells were added to a 96-well U-bottom plate, approximately 1.4×10⁵ cells/well. After centrifugation at 300 g for 5 minutes, the supernatant was discarded. […] After washing three times with FACS buffer, 100 μL/well of 1:800 diluted PE Streptavidin was added and incubated at 4° C. for 50 min. After washing three times with FACS buffer, 150 μL/well of PBS was added to resuspend the cells, and the fluorescence signal was detected on a flow cytometer (BECKMAN COULTER cytoFLEX). The binding activity was fitted using a four-parameter model, and the IC₅₀ value of the blocking activity of each antibody was calculated.

T2 sequence (P16410 36-161 limits assumed): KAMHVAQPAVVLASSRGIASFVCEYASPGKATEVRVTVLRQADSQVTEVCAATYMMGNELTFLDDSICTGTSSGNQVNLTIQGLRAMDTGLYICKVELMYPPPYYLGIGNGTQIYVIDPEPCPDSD
T1 sequence (P15692 other isoform, or with tags, fused parts or gaps limits assumed): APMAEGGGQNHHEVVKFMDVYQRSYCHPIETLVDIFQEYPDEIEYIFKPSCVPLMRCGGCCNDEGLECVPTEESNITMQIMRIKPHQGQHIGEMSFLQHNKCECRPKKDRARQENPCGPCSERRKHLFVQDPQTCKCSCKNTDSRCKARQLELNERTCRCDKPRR
T5 sequence (P16410 36-223): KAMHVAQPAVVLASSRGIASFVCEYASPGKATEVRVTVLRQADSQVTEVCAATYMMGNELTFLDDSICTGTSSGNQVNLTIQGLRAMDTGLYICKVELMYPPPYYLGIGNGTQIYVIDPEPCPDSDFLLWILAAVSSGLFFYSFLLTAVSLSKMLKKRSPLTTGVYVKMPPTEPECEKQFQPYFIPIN
T3 sequence (Q15116 25-288): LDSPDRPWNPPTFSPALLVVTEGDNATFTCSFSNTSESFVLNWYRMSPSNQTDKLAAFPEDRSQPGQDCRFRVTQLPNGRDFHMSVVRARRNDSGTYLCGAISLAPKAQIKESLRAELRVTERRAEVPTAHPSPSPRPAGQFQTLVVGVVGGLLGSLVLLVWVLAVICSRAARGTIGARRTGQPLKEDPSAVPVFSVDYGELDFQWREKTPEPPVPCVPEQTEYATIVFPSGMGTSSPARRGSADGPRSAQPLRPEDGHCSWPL
T4 sequence (Q15116 25-167 limits assumed): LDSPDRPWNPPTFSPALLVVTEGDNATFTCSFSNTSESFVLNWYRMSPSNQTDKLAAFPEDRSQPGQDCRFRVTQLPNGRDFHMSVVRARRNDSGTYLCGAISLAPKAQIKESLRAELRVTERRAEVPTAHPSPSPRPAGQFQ
human PD-1 protein (Acro, PD1-H5257), sequence (Q15116 25-167 limits assumed): as above

Binder	EC50 [1] [nM]	EC50 [2] [nM]	IC50 [3] [nM]	IC50 [4] [nM]	EC50 [5] [nM]	IC50 [6] [nM]
HC010-F7 (trispecific antibody, human IgG4 S228P, kappa, light: CQ1-3/1-11 VL-kappa; also called H010-F7) heavy: not shown light: DIQMTQSPSSLSASVGDRVTITCRASESVDNYGISFMNWYQQKPGKAPKLLIYAASNQGSGVPSRFSGSGSGTDFTLTISSLQPEDFATYYCQQSKEVPWTFGGGTKVEIKRTVAAPSVFIFPPSDEQLKSGTASVVCLLNNFYPREAKVQWKVDNALQSGNSQESVTEQDSKDSTYSLSSTLTLSKADYEKHKVYACEVTHQGLSSPVTKSFNRGEC	0.081	0.059	0.433	3.7	0.085	0.055
HC010-F11 (trispecific antibody, human IgG4 S228P, kappa, light: CQ1-3/1-11 VL-kappa - (G4S)4 - 202F1 VHH; also called H010-F11) heavy: not shown light: DIQMTQSPSSLSASVGDRVTITCRASESVDNYGISFMNWYQQKPGKAPKLLIYAASNQGSGVPSRFSGSGSGTDFTLTISSLQPEDFATYYCQQSKEVPWTFGGGTKVEIKRTVAAPSVFIFPPSDEQLKSGTASVVCLLNNFYPREAKVQWKVDNALQSGNSQESVTEQDSKDSTYSLSSTLTLSKADYEKHKVYACEVTHQGLSSPVTKSFNRGECGGGGSGGGGSGGGGSGGGGSEVQLLESGGGLVQPGGSLRLSCAASGSIFSINHMAWYRQAPGKQRELVAGVNSRGTTNYVDSVKGRFTISRDNSKNTLYLQMNSLRAEDTAVYYCRALGGAVAAWGQGTLVTVSS	0.125	0.044	0.83	5.58	0.114	0.076
HC010-F13 (trispecific antibody, human IgG4 S228P, kappa, Knob-into-hole heterodimer; light: CQ1-3/1-11 VL-kappa; One site each for PD-1 and CTLA-4; also called H010-F13) heavy 1: EVQLVESGGGLVQPGGSLRLSCAASGFTFSSYGMSWVRQAPGKGLEWVSTISGGGRDTYYPDSVKGRFTISRDNSKNTLYLQMNSLRAEDTAVYYCARQNGITWFADWGQGTLVTVSSASTKGPSVFPLAPCSRSTSESTAALGCLVKDYFPEPVTVSWNSGALTSGVHTFPAVLQSSGLYSLSSVVTVPSSSLGTKTYTCNVDHKPSNTKVDKRVESKYGPPCPPCPAPEFLGGPSVFLFPPKPKDTLMISRTPEVTCVVVDVSQEDPEVQFNWYVDGVEVHNAKTKPREEQFNSTYRVVSVLTVLHQDWLNGKEYKCKVSNKGLPSSIEKTISKAKGQPREPQVYTLPPCQEEMTKNQVSLWCLVKGFYPSDIAVEWESNGQPENNYKTTPPVLDSDGSFFLYSRLTVDKSRWQEGNVFSCSVMHEALHNHYTQKSLSLSLGAGGGGSGGGGSGGGGSGGGGSEVQLVESGGGLVQPGGSLRLSCAASGYTFTNYGMNWVRQAPGKCLEWVGWINTYTGEPTYAADFKRRFTFSLDTSKSTAYLQMNSLRAEDTAVYYCAKYPHYYGSSHWYFDVWGQGTLVTVSSGGGGSGGGGSGGGGSGGGGSDIQMTQSPSSLSASVGDRVTITCSASQDISNYLNWYQQKPGKAPKVLIYFTSSLHSGVPSRFSGSGSGTDFTLTISSLQPEDFATYYCQQYSTVPWTFGCGTKVEIK heavy 2: EVQLLESGGGLVQPGGSLRLSCAASGSIFSINHMAWYRQAPGKQRELVAGVNSRGTTNYVDSVKGRFTISRDNSKNTLYLQMNSLRAEDTAVYYCRALGGAVAAWGQGTLVTVSSGGGGSGGGGSGGGGSGGGGSESKYGPPCPPCPAPEFLGGPSVFLFPPKPKDTLMISRTPEVTCVVVDVSQEDPEVQFNWYVDGVEVHNAKTKPREEQFNSTYRVVSVLTVLHQDWLNGKEYKCKVSNKGLPSSIEKTISKAKGQPREPQVCTLPPSQEEMTKNQVSLSCAVKGFYPSDIAVEWESNGQPENNYKTTPPVLDSDGSFFLVSRLTVDKSRWQEGNVFSCSVMHEALHNRFTQKSLSLSLGAGGGGSGGGGSGGGGSGGGGSEVQLVESGGGLVQPGGSLRLSCAASGYTFTNYGMNWVRQAPGKCLEWVGWINTYTGEPTYAADFKRRFTFSLDTSKSTAYLQMNSLRAEDTAVYYCAKYPHYYGSSHWYFDVWGQGTLVTVSSGGGGSGGGGSGGGGSGGGGSDIQMTQSPSSLSASVGDRVTITCSASQDISNYLNWYQQKPGKAPKVLIYFTSSLHSGVPSRFSGSGSGTDFTLTISSLQPEDFATYYCQQYSTVPWTFGCGTKVEIK light: DIQMTQSPSSLSASVGDRVTITCRASESVDNYGISFMNWYQQKPGKAPKLLIYAASNQGSGVPSRFSGSGSGTDFTLTISSLQPEDFATYYCQQSKEVPWTFGGGTKVEIKRTVAAPSVFIFPPSDEQLKSGTASVVCLLNNFYPREAKVQWKVDNALQSGNSQESVTEQDSKDSTYSLSSTLTLSKADYEKHKVYACEVTHQGLSSPVTKSFNRGEC	0.098	0.438	1.63	69.9	0.307	0.066
HC010-F15 (trispecific antibody, human IgG4 S228P, kappa, Knob-into-hole heterodimer; light: ipilimumab VL-kappa; also called H010-F15) heavy 1: QVQLVESGGGVVQPGRSLRLSCAASGFTFSSYTMHWVRQAPGKGLEWVTFISYDGNNKYYADSVKGRFTISRDNSKNTLYLQMNSLRAEDTAIYYCARTGWLGPFDYWGQGTLVTVSSASTKGPSVFPLAPCSRSTSESTAALGCLVKDYFPEPVTVSWNSGALTSGVHTFPAVLQSSGLYSLSSVVTVPSSSLGTKTYTCNVDHKPSNTKVDKRVESKYGPPCPPCPAPEFLGGPSVFLFPPKPKDTLMISRTPEVTCVVVDVSQEDPEVQFNWYVDGVEVHNAKTKPREEQFNSTYRVVSVLTVLHQDWLNGKEYKCKVSNKGLPSSIEKTISKAKGQPREPQVYTLPPCQEEMTKNQVSLWCLVKGFYPSDIAVEWESNGQPENNYKTTPPVLDSDGSFFLYSRLTVDKSRWQEGNVFSCSVMHEALHNHYTQKSLSLSLGAGGGGSGGGGSGGGGSGGGGSEVQLVESGGGLVQPGGSLRLSCAASGYTFTNYGMNWVRQAPGKCLEWVGWINTYTGEPTYAADFKRRFTFSLDTSKSTAYLQMNSLRAEDTAVYYCAKYPHYYGSSHWYFDVWGQGTLVTVSSGGGGSGGGGSGGGGSGGGGSDIQMTQSPSSLSASVGDRVTITCSASQDISNYLNWYQQKPGKAPKVLIYFTSSLHSGVPSRFSGSGSGTDFTLTISSLQPEDFATYYCQQYSTVPWTFGCGTKVEIK heavy 2: EVQLVESGGGLVQPGGSLRLSCAASGFTFSSYGMSWVRQAPGKCLEWVSTISGGGRDTYYPDSVKGRFTISRDNSKNTLYLQMNSLRAEDTAVYYCARQNGITWFADWGQGTLVTVSSGGGGSGGGGSGGGGSGGGGSDIQMTQSPSSLSASVGDRVTITCRASESVDNYGISFMNWYQQKPGKAPKLLIYAASNQGSGVPSRFSGSGSGTDFTLTISSLQPEDFATYYCQQSKEVPWTFGCGTKVEIKGGGGSGGGGSGGGGSGGGGSESKYGPPCPPCPAPEFLGGPSVFLFPPKPKDTLMISRTPEVTCVVVDVSQEDPEVQFNWYVDGVEVHNAKTKPREEQFNSTYRVVSVLTVLHQDWLNGKEYKCKVSNKGLPSSIEKTISKAKGQPREPQVCTLPPSQEEMTKNQVSLSCAVKGFYPSDIAVEWESNGQPENNYKTTPPVLDSDGSFFLVSRLTVDKSRWQEGNVFSCSVMHEALHNRFTQKSLSLSLGAGGGGSGGGGSGGGGSGGGGSEVQLVESGGGLVQPGGSLRLSCAASGYTFTNYGMNWVRQAPGKCLEWVGWINTYTGEPTYAADFKRRFTFSLDTSKSTAYLQMNSLRAEDTAVYYCAKYPHYYGSSHWYFDVWGQGTLVTVSSGGGGSGGGGSGGGGSGGGGSDIQMTQSPSSLSASVGDRVTITCSASQDISNYLNWYQQKPGKAPKVLIYFTSSLHSGVPSRFSGSGSGTDFTLTISSLQPEDFATYYCQQYSTVPWTFGCGTKVEIK light: not shown	0.087	–	2.22	326	0.712	–
